pKd: −log10 of the molar value. Blank lines part the entries; values can stand above or below the sequence they belong to.
Assays:
HLA-A*32:01 = experiment: IEDB peptide-MHC binding, purified MHC/competitive/radioactivity; filed as Kd, often an IC50 or EC50 that approximates it; ≥ and ≤ were set here for values at or beyond the usual limits of such assays
HLA-B*15:01 [1] = experiment: as above
HLA-B*15:03 = experiment: as above
HLA-A*30:01 = experiment: as above
HLA-B*08:01 = experiment: as above
HLA-A*31:01 = experiment: IEDB peptide-MHC binding, purified MHC/competitive/fluorescence; filed as Kd, often an IC50 or EC50 that approximates it; ≥ and ≤ were set here for values at or beyond the usual limits of such assays
HLA-A*03:01 [2] = experiment: as above
HLA-B*57:01 = experiment: as above
HLA-B*18:01 = experiment: as above
HLA-A*69:01 = experiment: as above
HLA-A*26:01 = experiment: as above
HLA-B*46:01 = experiment: as above
HLA-A*02:01 = experiment: as above
HLA-B*27:03 = experiment: as above
HLA-B*39:01 = experiment: as above
HLA-B*51:01 = experiment: as above
HLA-A*02:19 = experiment: IEDB peptide-MHC binding, purified MHC/direct/fluorescence; filed as Kd, often an IC50 or EC50 that approximates it; ≥ and ≤ were set here for values at or beyond the usual limits of such assays
HLA-A*02:11 = experiment: as above
HLA-A*02:03 = experiment: as above
HLA-A*23:01 = experiment: as above
HLA-A*29:02 = experiment: as above
HLA-A*03:01 [3] = experiment: as above
HLA-A*02:12 = experiment: as above
HLA-A*11:01 = experiment: as above
HLA-A*02:16 = experiment: as above
HLA-A*24:03 = experiment: as above
HLA-B*15:01 [4] = experiment: IEDB peptide-MHC binding, purified MHC/competitive/fluorescence; filed as Kd, often an IC50 or EC50 that approximates it; ≥ and ≤ were set here for values at or beyond the usual limits of such assays
HLA-A*01:01 = experiment: IEDB peptide-MHC binding, purified MHC/direct/fluorescence; filed as Kd, often an IC50 or EC50 that approximates it; ≥ and ≤ were set here for values at or beyond the usual limits of such assays; conditions: source organism: Reston ebolavirus
HLA-A*68:02 = experiment: as above
HLA-B*15:17 = experiment: IEDB peptide-MHC binding, purified MHC/competitive/fluorescence; filed as Kd, often an IC50 or EC50 that approximates it; ≥ and ≤ were set here for values at or beyond the usual limits of such assays
[5] = source organism: Vaccinia virus WR
[6] = source organism: Escherichia coli 536
[7] = source organism: Encephalitozoon cuniculi GB-M1
[8] = source organism: Vaccinia virus Copenhagen
[9] = source organism: Listeria welshimeri serovar 6b str. SLCC5334
[10] = source organism: Zaire ebolavirus
[11] = source organism: Entamoeba histolytica HM-1:IMSS
[12] = source organism: Reston ebolavirus
[13] = source organism: dengue virus type 1
[14] = source organism: Burkholderia mallei
[15] = source organism: Vibrio vulnificus YJ016
[16] = source organism: Toxoplasma gondii

Sequence: AILSLNLRI
- pKd (HLA-A*32:01; [5]): 6.82
- pKd (HLA-B*15:01 [1]; [5]): 6.85
- pKd (HLA-B*15:03; [5]): 6.63
- pKd (HLA-A*30:01; [5]): 6.81
- pKd (HLA-B*08:01; [5]): 5.89

- pKd (HLA-A*31:01; [6]): 6.13
- pKd (HLA-A*03:01 [2]; [6]): ≤ 4.70
Sequence: AVIVWLLLR

- pKd (HLA-B*57:01; [7]): ≤ 4.70
- pKd (HLA-B*18:01; [7]): ≤ 4.70
- pKd (HLA-A*69:01; [7]): ≤ 4.70
- pKd (HLA-A*26:01; [7]): ≤ 4.70
- pKd (HLA-B*46:01; [7]): ≤ 4.70
- pKd (HLA-A*02:01; [7]): ≤ 4.70
- pKd (HLA-B*27:03; [7]): ≤ 4.70
- pKd (HLA-B*39:01; [7]): ≤ 4.70
- pKd (HLA-B*51:01; [7]): ≤ 4.70
- pKd (HLA-A*02:19; [7]): ≤ 4.70
- pKd (HLA-A*02:11; [7]): ≤ 4.70
- pKd (HLA-A*02:03; [7]): ≤ 4.70
- pKd (HLA-A*23:01; [7]): ≤ 4.70
- pKd (HLA-A*29:02; [7]): ≤ 4.70
- pKd (HLA-A*03:01 [3]; [7]): ≤ 4.70
- pKd (HLA-A*02:12; [7]): ≤ 4.70
- pKd (HLA-A*11:01; [7]): ≤ 4.70
- pKd (HLA-A*02:16; [7]): ≤ 4.70
- pKd (HLA-A*24:03; [7]): ≤ 4.70
Sequence: EAYCALLCK

Sequence: FLSEPYSYF
- pKd (HLA-B*15:03; [5]): 7.53

Sequence: FMAYTTSHI
- pKd (HLA-B*15:01 [1]; [5]): 6.88
- pKd (HLA-B*15:03; [5]): 8.12

Sequence: GVALRSTYR
- pKd (HLA-A*31:01; source organism: Mycobacterium tuberculosis H37Ra): 8.03
- pKd (HLA-A*03:01 [3]; source organism: Mycobacterium tuberculosis): 5.74

Sequence: ISVLTGSSI
- pKd (HLA-A*32:01; [8]): 5.41
- pKd (HLA-B*15:01 [1]; [8]): 7.46
- pKd (HLA-B*15:03; [8]): 7.60
- pKd (HLA-A*30:01; [8]): 5.49
- pKd (HLA-B*08:01; [8]): ≤ 4.69

Sequence: KKYNNDKSF
- pKd (HLA-A*32:01; [5]): 4.94
- pKd (HLA-B*15:01 [1]; [5]): 5.18
- pKd (HLA-B*15:03; [5]): 10.11
- pKd (HLA-A*30:01; [5]): ≤ 4.69
- pKd (HLA-B*08:01; [5]): 5.42

Sequence: KVGHVGLYR
- pKd (HLA-A*31:01; [9]): 7.71
- pKd (HLA-A*03:01 [2]; [9]): 7.34

Sequence: KVKDLFNTK
- pKd (HLA-A*32:01; [5]): 5.61
- pKd (HLA-B*15:01 [1]; [5]): 5.35
- pKd (HLA-B*15:03; [5]): ≤ 4.66
- pKd (HLA-A*30:01; [5]): 7.42
- pKd (HLA-B*08:01; [5]): ≤ 4.38

Sequence: LATFTVNIF
- pKd (HLA-B*15:03; [5]): 7.45

Sequence: LLSLEIVFF
- pKd (HLA-B*15:01 [1]; [8]): 6.85
- pKd (HLA-B*15:03; [8]): 5.68

Sequence: LSDAARLFL
- pKd (HLA-B*57:01; [10]): ≤ 4.70
- pKd (HLA-B*15:01 [4]; [10]): ≤ 4.70
- pKd (HLA-B*18:01; [10]): ≤ 4.70
- pKd (HLA-A*69:01; [10]): ≤ 4.70
- pKd (HLA-A*26:01; [10]): ≤ 4.70
- pKd (HLA-B*46:01; [10]): ≤ 4.70
- pKd (HLA-A*02:01; [10]): ≤ 4.70
- pKd (HLA-B*27:03; [10]): ≤ 4.70
- pKd (HLA-B*39:01; [10]): ≤ 4.70
- pKd (HLA-B*51:01; [10]): ≤ 4.70
- pKd (HLA-A*02:19; [10]): ≤ 4.70
- pKd (HLA-A*02:11; [10]): ≤ 4.70
- pKd (HLA-A*02:03; [10]): ≤ 4.70
- pKd (HLA-A*23:01; [10]): ≤ 4.70
- pKd (HLA-A*01:01): 6.52
- pKd (HLA-A*29:02; [10]): ≤ 4.70
- pKd (HLA-A*03:01 [3]; [10]): ≤ 4.70
- pKd (HLA-A*02:12; [10]): ≤ 4.70
- pKd (HLA-A*68:02; [10]): ≤ 4.70
- pKd (HLA-A*02:16; [10]): ≤ 4.70
- pKd (HLA-A*24:03; [10]): ≤ 4.70

Sequence: QYQNEINYL
- pKd (HLA-A*23:01; [11]): 8.70
- pKd (HLA-A*24:03; [11]): 8.52

Sequence: RTYSLLNRK
- pKd (HLA-A*31:01; [12]): 7.81
- pKd (HLA-B*57:01; [12]): ≤ 4.70
- pKd (HLA-B*15:01 [4]; [12]): ≤ 4.70
- pKd (HLA-B*18:01; [12]): ≤ 4.70
- pKd (HLA-A*69:01; [12]): ≤ 4.70
- pKd (HLA-A*26:01; [12]): ≤ 4.70
- pKd (HLA-B*46:01; [12]): ≤ 4.70
- pKd (HLA-A*02:01; [12]): ≤ 4.70
- pKd (HLA-B*27:03; [12]): ≤ 4.70
- pKd (HLA-B*39:01; [12]): ≤ 4.70
- pKd (HLA-B*51:01; [12]): ≤ 4.70
- pKd (HLA-B*15:17; [12]): ≤ 4.70
- pKd (HLA-A*02:19; [12]): ≤ 4.70
- pKd (HLA-A*02:11; [12]): ≤ 4.70
- pKd (HLA-A*02:03; [12]): ≤ 4.70
- pKd (HLA-A*23:01; [12]): ≤ 4.70
- pKd (HLA-A*29:02; [12]): ≤ 4.70
- pKd (HLA-A*03:01 [3]; source organism: Reston ebolavirus - Reston): 6.84
- pKd (HLA-A*02:12; [12]): ≤ 4.70
- pKd (HLA-A*68:02; [12]): ≤ 4.70
- pKd (HLA-A*02:16; [12]): ≤ 4.70
- pKd (HLA-A*24:03; [12]): ≤ 4.70

Sequence: SIRSMSRSI
- pKd (HLA-A*32:01; [8]): 5.87
- pKd (HLA-B*15:01 [1]; [8]): 6.44
- pKd (HLA-B*15:03; [8]): 4.99
- pKd (HLA-A*30:01; [8]): 6.88
- pKd (HLA-B*08:01; [8]): 7.11

Sequence: SKFVYVSVM
- pKd (HLA-B*15:03; [5]): 8.79

Sequence: SSADLSLEK
- pKd (HLA-A*31:01; [13]): ≤ 4.70
- pKd (HLA-A*11:01; [13]): 8.57

Sequence: TGHPWITFK
- pKd (HLA-A*31:01; source organism: Cupriavidus metallidurans CH34): 7.32
- pKd (HLA-A*03:01 [3]; [14]): 6.02
- pKd (HLA-A*11:01; [14]): 6.93

Sequence: TSCAPMMQK
- pKd (HLA-B*57:01; [15]): ≤ 4.70
- pKd (HLA-B*18:01; [15]): ≤ 4.70
- pKd (HLA-A*69:01; [15]): ≤ 4.70
- pKd (HLA-A*26:01; [15]): ≤ 4.70
- pKd (HLA-B*46:01; [15]): ≤ 4.70
- pKd (HLA-A*02:01; [15]): ≤ 4.70
- pKd (HLA-B*27:03; [15]): ≤ 4.70
- pKd (HLA-B*39:01; [15]): ≤ 4.70
- pKd (HLA-B*51:01; [15]): ≤ 4.70
- pKd (HLA-A*02:19; [15]): ≤ 4.70
- pKd (HLA-A*02:11; [15]): ≤ 4.70
- pKd (HLA-A*02:03; [15]): ≤ 4.70
- pKd (HLA-A*23:01; [15]): ≤ 4.70
- pKd (HLA-A*02:12; [15]): ≤ 4.70
- pKd (HLA-A*11:01; [15]): 8.22
- pKd (HLA-A*68:02; [15]): ≤ 4.70
- pKd (HLA-A*02:16; [15]): ≤ 4.70
- pKd (HLA-A*24:03; [15]): ≤ 4.70

Sequence: VLDCRTAFK
- pKd (HLA-A*31:01; source organism: Yellow fever virus): 6.11
- pKd (HLA-A*11:01; source organism: Yellow fever virus 17D): 6.96

Sequence: VSSHKGWAK
- pKd (HLA-B*57:01; [16]): ≤ 4.70
- pKd (HLA-A*69:01; [16]): ≤ 4.70
- pKd (HLA-A*26:01; [16]): ≤ 4.70
- pKd (HLA-B*46:01; [16]): ≤ 4.70
- pKd (HLA-A*02:01; [16]): ≤ 4.70
- pKd (HLA-B*27:03; [16]): ≤ 4.70
- pKd (HLA-B*39:01; [16]): ≤ 4.70
- pKd (HLA-B*51:01; [16]): ≤ 4.70
- pKd (HLA-B*15:17; [16]): ≤ 4.70
- pKd (HLA-A*02:19; [16]): ≤ 4.70
- pKd (HLA-A*02:11; [16]): ≤ 4.70
- pKd (HLA-A*02:03; [16]): ≤ 4.70
- pKd (HLA-A*23:01; [16]): ≤ 4.70
- pKd (HLA-A*03:01 [3]; [16]): ≤ 4.70
- pKd (HLA-A*02:12; [16]): ≤ 4.70
- pKd (HLA-A*11:01; [16]): 8.70
- pKd (HLA-A*68:02; [16]): ≤ 4.70
- pKd (HLA-A*02:16; [16]): ≤ 4.70
- pKd (HLA-A*24:03; [16]): ≤ 4.70

Sequence: WSTSFTNIF
- pKd (HLA-B*15:03; [8]): 8.23

From the Immune Epitope Database (IEDB)
